The values below come from article PMC7968844.

Like-named read-outs stand apart in the source and are kept apart here.

Take “ERα: ERα-2M (T553A + S554A) in GREB1-KO cells”: the degradation_or_half_life result is recorded as “no change” (O-GlcNAc at S554) and “no change” (O-GlcNAc at T553).
Take ERα: GREB1-KO: the degradation_or_half_life entry is, setting by setting: (O-GlcNAc at S554) “decreases”; (O-GlcNAc at T553) “decreases”.
